Test results: patent publication US12274759B2, “Affibody proteins specific for B7-H3 (CD276)” (THE BOARD OF TRUSTEES OF THE LELAND STANFORD JUNIOR …, priority 2018, dated 2025)

Target: T1, recombinant soluble human B7-H3 ectodomain protein (Homo sapiens, UniProt Q5ZPR3)
T1 construct: incubated with 3 μM of recombinant soluble human B7-H3 ectodomain protein
T1 sequence (Q5ZPR3 29-466 limits assumed): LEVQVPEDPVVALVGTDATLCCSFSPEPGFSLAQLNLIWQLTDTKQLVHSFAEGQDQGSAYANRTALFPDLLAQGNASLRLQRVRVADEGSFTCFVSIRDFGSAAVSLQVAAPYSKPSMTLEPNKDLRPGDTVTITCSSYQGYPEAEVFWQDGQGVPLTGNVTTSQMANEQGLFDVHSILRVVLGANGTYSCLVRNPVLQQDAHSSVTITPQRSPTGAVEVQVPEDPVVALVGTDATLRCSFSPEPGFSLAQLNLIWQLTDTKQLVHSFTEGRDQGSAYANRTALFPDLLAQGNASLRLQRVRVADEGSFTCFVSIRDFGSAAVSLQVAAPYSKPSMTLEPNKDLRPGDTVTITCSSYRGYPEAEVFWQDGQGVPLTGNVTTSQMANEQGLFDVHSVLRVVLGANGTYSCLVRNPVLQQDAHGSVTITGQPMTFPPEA
Experiment: Streptavidin bead binding to recombinant soluble human B7-H3 ectodomain by flow cytometry
Conditions: ligand immobilized to streptavidin magnetic beads; 3 μM recombinant soluble human B7-H3 ectodomain
Source text: FIG. 9. Production and validation of ABYB7-H3.(A) Left panel: Commassie Blue staining of SDS-PAGE showing high purity and expected size (7,490 Da) of finalized ABYB7-H3 produced in E. Coli. Right panel: Mass spectrometric analysis of ABYB7-H3 showing a mass-to-charge peak (m/z=7,546) corresponding to ABY molecular weight. A doubly charged peak (m/z=3763) is also present. Amino acid sequence of ABYB7-H3 (SEQ ID NO:28) is shown on the bottom. (B) Flow cytometry of biotin-ABYB7-H3 conjugated streptavidin-microbeads complex showing binding to soluble recombinant B7-H3 (3 μM) as detected by APC conjugated anti-B7-H3 antibody. Unconjugated beads (negative control) and anti B7-H3 antibody (AB) conjugated beads (positive control) were also tested for binding to soluble B7-H3 antigen.
Production of ABYB7-H3. Development of a B7-H3-binding ligand from an ABY yeast display library is described in Example 1. […] ABYB7-H3 ligand was recombinantly expressed in E. coli, purified, and functionalized with 1:1 molar ratio of biotin. […] In order to confirm binding specificity of recombinantly produced ABYB7-H3 to its target, biotinylated-ABY was immobilized to streptavidin- magnetic beads and incubated with 3 μM of recombinant soluble human B7-H3 ectodomain protein.

B1: anti- B7-H3 antibody: biotinylated anti-B7-H3 antibody conjugated to beads as positive control (protein)
VHH: QVQLVESGGGLVQPGGSLRLSCAASGFTFSSYWMYWVRQTPGKGLEWVSTINRDGSATWYADSVKGRFTISRDNAKNTGYLQMNSLKPDDTAVYYCVSDPDNYSSDEMVPYWGQGTQVTVSS
binding to soluble B7-H3: 81%
